Earlier results as cited in patent US11931453B2, “Drug delivery device” (NANO PRECISION MEDICAL, INC., priority 2016, dated 2024).

Conditions: estimated, based on molecular dimensions of similar peptides (literature)

GLP-1: Glucagon-Like Peptide-1; exenatide is an analog of GLP-1
Stokes' diameter / hydrodynamic diameter: about 2.6 nm
